Source: patent US5597798A, “Taxol and epidermal growth factor used to enhance treatment of ovarian cancer” (The Regents of the University of California, priority 1994, dated 1997)

Columns and labels:
[1] = system: 2008 human ovarian carcinoma cells; test: Colony forming assay, effect of EGF on sensitivity to cytotoxic agents; assay type: cell-based; settings: for survival, % of control cells treated with DDP alone: DDP and EGF together
2008 cells [2] = test: Growth rate under EGF exposure; assay type: cell-based, human; settings: 2 h or continuous exposure to 10 nM EGF
Description: (§1) During the first 5 days after cell seeding, cell growth was exponential. The doubling times of the 2008, 2008/C13*, and COLO 316 cells were 27.9, 28.2, and 29.2 hs, respectively.

2008/C13* cells [3] = test: Growth rate under EGF exposure; assay type: cell-based, human; settings: 2 h or continuous exposure to 10 nM EGF
Description: as §1

COLO 316 cells [4] = test: Growth rate under EGF exposure; assay type: cell-based, human; settings: 2 h or continuous exposure to 10 nM EGF
Description: as §1

2008 cells [5] = test: Morphologic changes induced by EGF (light microscopy of colonies); assay type: cell-based, human; settings: 10 nM EGF for 2 hs, inspected after 10 days
Description: (§2) The colonies formed by the COLO 316 cells appeared somewhat denser.

2008/C13* cells [6] = test: as above; assay type: cell-based, human; settings: 2 h EGF exposure
Description: as §2

COLO 316 cells [7] = test: as above; assay type: cell-based, human; settings: 10 nM EGF for 2 hs, inspected after 10 days
Description: as §2

2008 tumor xenografts = test: Effect of EGF on cisplatin toxicity against tumor xenografts in athymic mice; assay type: in vivo, athymic mice (nu/nu)
Method: For these studies, 3 to 4 week old female athymic mice (nu/nu) from BALB/c origin were used which were supplied by Harlan Sprague Dawley, Inc. (Indianapolis, Ind.). The mice were kept in a laminar flow hood at 28° C. and fed standard mouse diet and water ad libitum.
Tumor xenografts were established from 2008 cells by harvesting confluent cell cultures by trypsinization and resuspending the cells in RPMI 1640 medium at 2.5×10^7 cells per ml. From this suspension, 0.2 ml aliquots containing 5×10^6 cells were injected s.c. on each shoulder of the athymic mice. In each mouse, two tumors were followed and tumor volumes were determined using the formula (length×width^2)/2 (Giavazzi et al., Cancer Res. 46:1928 (1986) and Tomayko & Reynolds Cancer Chemother. Pharmacol. 24:148 (1989)).
In all groups, treatment was administered 24 hours after the inoculation with tumor cells.
Tumor growth of each tumor in each animal was expressed as plot of in(tumor volume) as a function of time. The regression line of the in(tumor volume) versus time plot was calculated by using the method of least squares. The intercept and slope were obtained and used to calculate the time each tumor required to reach an arbitrarily defined volume of 1 ml. This volume was chosen because most tumors in all treatment groups reached this endpoint. For comparisons between two groups the unpaired Student's T-test was used. […]

[8] = set-up: species or system mice; settings: mouse, in vivo
Method: For nephrotoxicity studies, 72 h after treatment, mice were anesthetized and 1.5 ml of blood was sampled by cardiac puncture. Plasma creatinine and blood urea nitrogen (BUN) levels were used to measure toxicity and were determined by an enzymatic method previously described (Kulpman et al., J. Clin. Chem. Clin. Biochem. 28(11): 835 (1990)).

[9] = 2 h exposure to EGF (1 h before and 1 h concurrent with DDP)
[10] = delay between 1 h EGF pre-treatment and 1 h DDP exposure

B1: EGF: Epidermal Growth Factor; murine EGF (Sigma) in clonogenic assays, 125I-labelled human recombinant EGF in binding assays (protein, UniProt P01133 23-1207, looked up)
Pro-epidermal growth factor: PQHWSCPEGTLAGNGNSTCVGPAPFLIFSHGNSIFRIDTEGTNYEQLVVDAGVSVIMDFHYNEKRIYWVDLERQLLQRVFLNGSRQERVCNIEKNVSGMAINWINEEVIWSNQQEGIITVTDMKGNNSHILLSALKYPANVAVDPVERFIFWSSEVAGSLYRADLDGVGVKALLETSEKITAVSLDVLDKRLFWIQYNREGSNSLICSCDYDGGSVHISKHPTQHNLFAMSLFGDRIFYSTWKMKTIWIANKHTGKDMVRINLHSSFVPLGELKVVHPLAQPKAEDDTWEPEQKLCKLRKGNCSSTVCGQDLQSHLCMCAEGYALSRDRKYCEDVNECAFWNHGCTLGCKNTPGSYYCTCPVGFVLLPDGKRCHQLVSCPRNVSECSHDCVLTSEGPLCFCPEGSVLERDGKTCSGCSSPDNGGCSQLCVPLSPVSWECDCFPGYDLQLDEKSCAASGPQPFLLFANSQDIRHMHFDGTDYGTLLSQQMGMVYALDHDPVENKIYFAHTALKWIERANMDGSQRERLIEEGVDVPEGLAVDWIGRRFYWTDRGKSLIGRSDLNGKRSKIITKENISQPRGIAVHPMAKRLFWTDTGINPRIESSSLQGLGRLVIASSDLIWPSGITIDFLTDKLYWCDAKQSVIEMANLDGSKRRRLTQNDVGHPFAVAVFEDYVWFSDWAMPSVMRVNKRTGKDRVRLQGSMLKPSSLVVVHPLAKPGADPCLYQNGGCEHICKKRLGTAWCSCREGFMKASDGKTCLALDGHQLLAGGEVDLKNQVTPLDILSKTRVSEDNITESQHMLVAEIMVSDQDDCAPVGCSMYARCISEGEDATCQCLKGFAGDGKLCSDIDECEMGVPVCPPASSKCINTEGGYVCRCSEGYQGDGIHCLDIDECQLGEHSCGENASCTNTEGGYTCMCAGRLSEPGLICPDSTPPPHLREDDHHYSVRNSDSECPLSHDGYCLHDGVCMYIEALDKYACNCVVGYIGERCQYRDLKWWELRHAGHGQQQKVIVVAVCVVVLVMLLLLSLWGAHYYRTQKLLSKNPKNPYEESSRDVRSRRPADTEDGMSSCPQPWFVVIKEHQDLKNGGQPVAGEDGQAADGSMQPTSWRQEPQLCGMGTEQGCWIPVSSDKGSCPQVMERSFHMPSYGTQTLEGGVEKPHSLLSANPLWQQRALDPPHQMELTQ
modifications: Pro-epidermal growth factor 125I-labelled; murine EGF also used
[1]; [9]
  EGF concentration of maximal enhancement of DDP sensitivity: about 10 nM
  lowest EGF concentration that enhanced sensitivity to DDP: 0.4 nM
[1]; no cyclohexamide
  survival, % of control cells treated with DDP alone: 31±10%
[1]; pretreatment with cyclohexamide inhibiting protein synthesis by 90%
  survival, % of control cells treated with DDP alone: 47±8%
[1]; EGF up to 100 nM
  effect of further increase in EGF concentration: no additional change in sensitivity to DDP
[1]; [10]
  loss of EGF mediated increase in sensitivity to DDP: largely disappeared by 24 hs
  persistence of EGF mediated increase in sensitivity to DDP: at least 6 hs
2008 cells [2]
  effect on growth rate: Neither a 2 h nor a continuous exposure to 10 nM EGF had any demonstrable impact on the growth rate
2008/C13* cells [3]
  effect on growth rate: Neither a 2 h nor a continuous exposure to 10 nM EGF had any demonstrable impact on the growth rate
COLO 316 cells [4]
  effect on growth rate: Neither a 2 h nor a continuous exposure to 10 nM EGF had any demonstrable impact on the growth rate
2008 cells [5]
  morphologic change of colonies: marked scattering of the colonies and the formation of prominent dendritic processes
2008/C13* cells [6]
  morphologic response: showed no morphologic response
COLO 316 cells [7]
  morphologic change of colonies: marked scattering of the colonies and the formation of prominent dendritic processes
2008 tumor xenografts; 1 mg/kg EGF s.c. alone or with 15 mg/kg cisplatin i.p.
  time required for tumors to reach a volume of 1 ml (in words): no effect on the time required for tumors to reach a volume of 1 ml
2008 tumor xenografts; 1 mg/kg EGF s.c. and/or 15 mg/kg cisplatin i.p., 24 hours after inoculation
  final tumor volume: no effect on the final tumor volume
[8]
  serum creatinine or BUN: Neither treatment with EGF alone, cisplatin alone, or EGF plus cisplatin resulted in statistically significant increases in serum creatinine or BUN
